How the values were obtained:
[1] = target: FAM-AIP-I (fluorescein-labeled AIP-I analog) (Staphylococcus aureus); experiment: fluorescence polarisation
[2] = target: AgrC-I (wild type) dimer embedded in nanodiscs (Staphylococcus aureus); experiment: SEC-MALS

B1: AgrC-I (wild type) dimer embedded in nanodiscs (receptor)
chain: MELLNSYNFVLFVLTQMILMFTIPAIISGIKYSKLDYFFIIVISTLSLFLFKMFDSASLIILTSFIIIMYFVKIKWYSILLIMTSQIILYCANYMYIVIYAYITKISDSIFVIFPSFFVVYVTISILFSYIINRVLKKISTPYLILNKGFLIVISTILLLTFSLFFFYSQINSDEAKVIRQYSFIFIGITIFLSILTFVISQFLLKEMKYKRNQEEIETYYEYTLKIEAINNEMRKFRHDYVNILTTLSEFIREDDMPGLRDYFNKNIVPMKDNLQMNAIKLNGIENLKVREIKGLITAKILRAQEMNIPISIEIPDEVSSINLNMIDLSRSIGIILDNAIEASTEIDDPIIRVAFIESENSVTFIVMNKCADDIPRIHELFQESFSTKGEGRGLGLSTLKEIADNADNVLLDTIIENGFFIQKVEIINN
modifications: not checked
**Q.** With B1 as the binder, how does the Kd [1] read?
**A.** The Kd was 122 nM.

**Q.** What about the stoichiometry N [2] of the same binder?
**A.** Its stoichiometry N is 2.
